Ends that are not written are not given here.
T1: amino terminal PACAP38 peptide (amino acids 1-13) (human)
T1 construct: also called N-terminal Peptide; N-terminal PACAP peptide
T1 peptide: HSDGIFTDSYSRY

T2: PACAP38 peptide fragment 34-38 (human, ends and bridges not checked)
T2 construct: also called peptide No. 17; RVKNK
T2 peptide: RVKNK

T3: human PACAP27 (human, not fully specified)
T3 construct: Natural isoform, amino acids 1-27 of PACAP38; also called peptide No. 1 (amino acids 1-27 of PACAP38)
T3 peptide: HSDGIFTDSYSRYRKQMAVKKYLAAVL

T4: PACAP38 peptide fragment 6-35 (human)
T4 construct: also called peptide No. 4
T4 peptide: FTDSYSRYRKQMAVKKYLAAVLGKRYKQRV

T5: PACAP38 peptide fragment 11-27 (human)
T5 construct: also called peptide No. 8
T5 peptide: SRYRKQMAVKKYLAAVL

T6: PACAP38 peptide fragment 4-27 (human)
T6 construct: also called peptide No. 9
T6 peptide: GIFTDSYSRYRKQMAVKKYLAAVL

T7: PACAP38 peptide fragment 6-36 (human)
T7 construct: also called peptide No. 12
T7 peptide: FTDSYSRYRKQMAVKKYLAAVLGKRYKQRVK

T8: 31-38 (ends and bridges not checked)
T8 construct: also called PACAP38 peptide fragment 31-38; peptide No. 5
T8 peptide: YKQRVKNK

T9: PACAP38 peptide fragment 27-38 (human, ends and bridges not checked)
T9 construct: also called peptide No. 6
T9 peptide: LGKRYKQRVKNK

T10: PACAP38 peptide fragment 26-33 (human)
T10 construct: also called peptide No. 2
T10 peptide: VLGKRYKQ

T11: PACAP38 peptide fragment 14-38 (human, not fully specified)
T11 construct: also called peptide No. 7
T11 peptide: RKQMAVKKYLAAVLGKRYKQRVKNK

B1: mAb2 (antibody, V domains shown)
VH: QSLEESGGGLVQPEGSLTLTCTASGFSFNSSSYMCWVRQAPGKGLEWIGCIFTGSSGNTYYATWAQGRFTISKTSTTVTLEMTSLTAADTATYFCARDRAYFLVGYFYATYYFDLWGPGTLVTVSS
VL: DVVMTQTPSPVSAQVGGTVTINCQASESIDSDLSWYQQKPGQPPKLLIYRTFTLESGVPSRFKGSGSGTDYTLTISDLECADAAIYYCQCTDGSSISGSYGWDAFGGGTEVVVKG
notes: Rabbit monoclonal antibody (SLAM), recombinant; also called monoclonal anti-PACAP antibody 2; 2 (c81)
B2: mAb6 (antibody, V domains shown)
VH: QLEESGGGLVQPGASLTLTCTTSGFSLSDNYLCWVRQAPGRGLEWVACIGIVLRSTGATYYASWAEGRFTISKTSPTTVTLEMTSLTAADTATYFCALDLGYGGPLWGPGTLVTVSS
VL: AQVLTQTPASVSAAVGGTVTINCQASQSVYNNKNLAWYQQKPGQPPKLLIYFSSTLASGVPSRFRGSGSGTQFTLTISGVQCGDAATYYCLGEFGSIWAFGGGTEVVVKG
notes: Rabbit monoclonal antibody (SLAM), recombinant; also called monoclonal anti-PACAP antibody 6; 6 (c55)
B3: mAb5 (antibody, V domains shown)
VH: QSVEESGGRLVTPGTPLTLTCTVSGFSLSTYNMCWVRQAPGKGLEWVGFINSDDSAYYASWAKGRFTFSKTSTTVDLKIASPTTEDTATYFCARYDWDYYYSRLDLWGPGTLVTVSS
VL: DIVLTQTPASVSAAVGGTVSISCQSSESVYNNNYLSWFQQKPGQPPKLLIYGASTLASGVPSRFEGSGSGTQFTLTISDVQCDDAATYYCLGDYIIIENIFGGGTEVVVKG
notes: Rabbit monoclonal antibody (SLAM), recombinant; also called monoclonal anti-PACAP antibody 5; 5 (c71)

Columns and labels:
[1] = molecular target: T1, amino terminal PACAP38 peptide (amino …); experiment: ELISA screen of B-cell culture supernatant; N-terminal peptide at 500 ng/mL
[2] = molecular target: T2, PACAP38 peptide fragment 34-38; experiment: SPR (Biacore 3000) solution competition: antibody pre-incubated 1:200 with the fragment, then injected over immobilised PACAP38
Method: (§1) In this experiment, various peptide fragments of PACAP38 were incubated with each of the six antibodies (mAb1, mAb2, mAb3, mAb4, mAb5, and mAb6) described in Example 2 and evaluated for their ability to inhibit binding of the antibodies to full-length PACAP38 immobilized on the sensor-chip. The binding epitopes for each of the antibodies were deduced from the set of peptides that were able to inhibit the binding of each antibody to full-length PACAP38.
(§2) Each of the six anti-PACAP antibodies was incubated at a 1:200 molar ratio (Ab: peptide fragment) with each of the peptide fragments in Table 9 at an ambient temperature for 2 hours prior to analysis. […] A second control containing 6.5 nM antibody was prepared in sample diluent to be used as the untreated control sample for each antibody. Full-length PACAP38, buffer, and each peptide fragment were also tested to evaluate non-specific binding to the immobilized PACAP38 surface.

human PACAP27 [3] = molecular target: T3, human PACAP27; experiment: SPR (Biacore 3000), solution competition with the peptide for antibody binding to immobilised full-length PACAP38; % inhibition
Method: (§3) The binding epitopes of anti-PACAP antibodies were evaluated by using the Biacore 3000 biosensor-based instrument (GE Healthcare USA). The Biacore 3000 instrument utilizes surface plasmon resonance (SPR) technology to measure mass increase on the sensor-chip surface. The binding interactions are measured in real-time and recorded as Response Units (RU). Each binding profile (cycle) is stored in a “sensorgram” in real-time. Generally, Biacore technology entails immobilizing a ligand of interest on to a flow-cell of the sensor-chip via a coupling chemistry. The analyte (e.g. putative binding partner to the ligand of interest) is injected across the immobilized ligand allowing it to bind to the ligand-immobilized surface. The magnitude of the response is directly proportional to the mass increase on the immobilized surface due to the binding of the analyte.
as §1, §2

[4] = molecular target: T1, amino terminal PACAP38 peptide (amino …); experiment: as above
Method: as §3, §1, §2

[5] = molecular target: T4, PACAP38 peptide fragment 6-35; experiment: as above
Method: as §3, §1, §2

[6] = molecular target: T5, PACAP38 peptide fragment 11-27; experiment: as above
Method: as §3, §1, §2

[7] = molecular target: T6, PACAP38 peptide fragment 4-27; experiment: as above
Method: as §3, §1, §2

[8] = molecular target: T7, PACAP38 peptide fragment 6-36; experiment: as above
Method: as §3, §1, §2

31-38 = molecular target: T8, 31-38; experiment: SPR (Biacore 3000), solution competition: antibody pre-incubated 2 h with the peptide at 1:200 molar ratio (Ab:peptide), then injected over immobilised full-length PACAP38; readout % inhibition of antibody binding (filing counts >50 % as reactive)
Method: as §3, §1, §2

[9] = molecular target: T9, PACAP38 peptide fragment 27-38; experiment: SPR (Biacore 3000), solution competition with the peptide for antibody binding to immobilised full-length PACAP38; % inhibition
Method: as §3, §1, §2

[10] = molecular target: T7, PACAP38 peptide fragment 6-36; experiment: SPR (Biacore 3000), solution competition: antibody pre-incubated 2 h with the peptide at 1:200 molar ratio (Ab:peptide), then injected over immobilised full-length PACAP38; readout % inhibition of antibody binding (filing counts >50 % as reactive)
Method: as §3, §1, §2

human PACAP27 [11] = molecular target: T3, human PACAP27; experiment: cell-based or functional assay
[12] = molecular target: T10, PACAP38 peptide fragment 26-33; experiment: SPR (Biacore 3000) solution competition against immobilised PACAP38
[13] = molecular target: T9, PACAP38 peptide fragment 27-38; experiment: as above
[14] = molecular target: T4, PACAP38 peptide fragment 6-35; experiment: SPR (Biacore 3000) solution competition: antibody pre-incubated 1:200 with the fragment, then injected over immobilised PACAP38
Method: as §1, §2

[15] = molecular target: T11, PACAP38 peptide fragment 14-38; experiment: as above
Method: as §1, §2

[16] = molecular target: T5, PACAP38 peptide fragment 11-27; experiment: as above
Method: as §1, §2

[17] = molecular target: T6, PACAP38 peptide fragment 4-27; experiment: as above
Method: as §1, §2

| Binder | Optical Density [1] [OD] | binding result [2] | binding result (human PACAP27 [3]) | binding result [4] | binding result [5] | binding result [6] | binding result [7] | binding result [8] | binding result (31-38) | binding result [9] | binding result [10] | IC50: inhibition of PACAP27 (10 pM)-induced activation of human PAC1 receptor, cAMP assay in SH-SY5Y (CRL-2266) cells, POC versus antibody concentration (human PACAP27 [11]) [nM] | binding result [12] | binding result [13] | binding result [14] | binding result [15] | binding result [16] | binding result [17] |
| --- | --- | --- | --- | --- | --- | --- | --- | --- | --- | --- | --- | --- | --- | --- | --- | --- | --- | --- |
| B1 | 0.06 | binds | no binding (tested: 1:200 molar ratio (Ab:peptide)) | no binding (tested: 1:200 molar ratio (Ab:peptide)) | no binding (tested: 1:200 molar ratio (Ab:peptide)) | no binding (tested: 1:200 molar ratio (Ab:peptide)) | no binding (tested: 1:200 molar ratio (Ab:peptide)) | no binding (tested: 1:200 molar ratio (Ab:peptide)) | binds |  |  |  |  |  |  |  |  |  |
| B2 |  |  |  |  |  |  |  |  |  | no binding (tested: 1:200 molar ratio (Ab:peptide)) | binds |  |  |  |  |  |  |  |
| B3 |  |  |  |  |  |  |  |  |  |  | binds | 41 | no binding (tested: 1:200 molar ratio (Ab: peptide fragment)) | no binding (tested: 1:200 molar ratio (Ab: peptide fragment)) | binds | binds | binds | binds |
